# Results from IntAct's records for PubMed 10869553.
# B1: Protein S100-A4 (Mus musculus), P07091 (parent)
# chain: MARPLEEALDVIVSTFHKYSGKEGDKFKLNKTELKELLTRELPSFLGKRTDEAAFQKVMSNLDSNRDNEVDFQEYCVFLSCIAMMCNEFFEGCPDKEPRKK
# partner: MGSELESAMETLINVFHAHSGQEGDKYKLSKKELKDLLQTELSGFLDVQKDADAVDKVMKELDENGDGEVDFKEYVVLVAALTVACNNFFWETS
# Variants of: B1
# Settings: with S100a1, P56565
row,effect of a mutation on the interaction,Variant
1,disrupting interaction,F72A
